Substitutions are numbered along the chain they refer to. Names may count otherwise.
B1: Human aldehyde dehydrogenase-2 (ALDH2), wild-type (enzyme)
chain: SAAATQAVPAPNQQPEVFCNQIFINNEWHDAVSRKTFPTVNPSTGEVICQVAEGDKEDVDKAVKAARAAFQLGSPWRRMDASHRGRLLNRLADLIERDRTYLAALETLDNGKPYVISYLVDLDMVLKCLRYYAGWADKYHGKTIPIDGDFFSYTRHEPVGVCGQIIPWNFPLLMQAWKLGPALATGNVVVMKVAEQTPLTALYVANLIKEAGFPPGVVNIVPGFGPTAGAAIASHEDVDKVAFTGSTEIGRVIQVAAGSSNLKRVTLELGGKSPNIIMSDADMDWAVEQAHFALFFNQGQCCCAGSRTFVQEDIYDEFVERSVARAKSRVVGNPFDSKTEQGPQVDETQFKKILGYINTGKQEGAKLLCGGGIAADRGYFIQPTVFGDVQDGMTIAKEEIFGPVMQILKFKTIEEVVGRANNSTYGLAAAVFTKDLDKANYLSQALQAGTVWVNCYDVFGAQSPFGGYKMSGSGRELGEYGLQAYTEVKTVTVKVPQKNS
modifications: thionitrate adduct on Cys-302 (GTN-soaked crystal)
B2: Human aldehyde dehydrogenase-2 (ALDH2) triple mutant E268Q/C301S/C303S (enzyme)
chain: B1 chain with E268Q, C301S, C303S

Molecular target: the molecule itself
Assay: crystal structure

Protein	stoichiometry N
B1	4
B2	4
